Data reported in the supplement of paper PMC9170038.

system: K4 kissing-loop RNA reporter; assay: apparent KD of K4 kissing-loop reporter; higher = weaker reporter binding; conditions: Eterna round: R107; input ligand: FMN 200 uM
Method: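 RNA-MaP round R107: designed RNA switches with theophylline, tryptophan, arginine or FMN aptamers are transcribed on-chip within common flanks. They are titrated with a labelled K4 kissing-loop RNA reporter in RNA-MaP buffer (100 mM Tris pH 7.5, 80 mM KCl, 4 mM MgCl2), without ligand or with the indicated ligand. Median apparent KD per design.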
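Note: bound reporter read as fluorescence of individual clusters on recovered sequencing chips by microscopy, with normalized cluster intensities fitted with a binding model.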

Sequence | apparent KD of K4 kissing-loop reporter
UGUGUUUACCUGACUCAGUGAUGUUGAGAAGGAGCGUGCGAAAGCACAGGUAGGUCGCUCAACCUAAAAUUCAGGUGAGCACUAA [#SwitchBubble 11 #K4Early] | 366 nM
AGUACAAUGGCGGCCGCCACUCAAUGGCAGAUCAAAGAUCUGCAUCACUCAGUGAUGUUGAGUGAGAGGACCGGGCCUUUGUACA [Omei KL Tryp B SS B v7] | 564 nM
GGAUAGGACUGAGGAUAUGGGCUAGGCAAGAAUAACUUGUCUAGCAAAUCCAUGAGGAGUGAUGUUCCAGAAGGCAGUCCUAUCG [FmnBX 1 U10+A76] | 732 nM
UCUGAAUUAUCUGAUACCAGACUUUUUGUAUUUAUUAAAACUAGUGAUGUUAGUUUAUCUGUCCCUUGGCAGCAGUUUCUACAGA [JR_Nu_ExcTheophyB_Sub022] | 79.9 nM
AAGCAGUCACUCGAAAUCAUCGAAGAUGAACGAGGACCGGUACGGCCGCCACUCGGAGUGAUGUUCCGAAGACUGCAAAAUAAAA [MatMod 1 - Jieux - Exclusion - Tryptophan A] | 593 nM
UUCAGACUACUACUAUUUAGUAGUAUAUACUAGGAUAUCCAGAUAUGGAGAAGGAGUGAUGUUCCUUAGUAGUAGUGAAUUAAAU [KL-XFMN-A6] | 145 nM
AUCAGUGUCUCACGCUACGACAUAUACGAUACCAGUCACCCUGAUGACCCUUGGCAGCGUCAACGAGUGAUGUUCGGGUUCUAGA [theeternabot_sameState_KL_Theo_A_1] | 345 nM
AUUGCGGCCGUUCUAUCACCAGGCGGAGAUACCAGAUGCCAGCAGAUCCCUUGGCAGCUCUGCACGAGAUCCAGUGAUGUUGGGU [theeternabot_exclusion_KL_Theo_A_9] | 319 nM
UUUUUCGCGUUUGAUACCAGCAGAGUUGUUCUUGUCUGGAACAUGAGUGAUGUUCAUGUCUGCCCUUGGCAGCAAACGGGAGAAG [KL-XTheo-B12] | 122 nM
AGUAAUGAGUGAUGUUCAAGUAGUAAGGAUACCAGUAAUUCAAAAUGCCCUUGGCAGCUUAGCGCUACCAAUAGAUGGGUAGUGG [Theophilline A V3 (+6G)] | 243 nM
UGACAUUGCUCAGAUACCAGACCUGAGGAACACCCAGGUGCCAAAACGUACUAAAUAAAGGUCCCUUGGCAGCUGAGCAAUGUCU [TheoBX 13] | 45.7 nM
GGAGUUACCUGGGAUACCAGUCGGAGGCCCAGAGCUCGGAGUGAUGUUCUGGGAUGUUUCGGCCCUUGGCAGCUCUGGGUCUCCC [#2 Exclusion - Theophylline B Attempt #7 (HarryS)] | 1690 nM
GGAAAUCUUGCCGAUACCAGAUCGCGCGGCCAUUGCUAGUGAUGUUGGCAAUAAGUACUCAUCCCUUGGCAGCGGUAAGGCAGUG [theeternabot_sameState_KL_Theo_B_23] | 390 nM
UCACCGCCUAGUGAUGUUACGCGACUCAGAAAGGAUAUAAUCAAUCUUAGAAGGUUCACACCGUAUGGAUAUUAUCUAUCUCGUU [theeternabot_exclusion_KL_FMN_A_39] | 456 nM
GUAGGAUGAGGAGGAGGAUGAAUUACUGAAGGAGCGCAAAGAAAUGCAGGUAGGUCGCGGUAAAGAAGUAUAGUGAUGUUAUAUA [SSArgA.E] | 400 nM
AAUAUAUAGUGAAGGAGCGCGAUAAGCAGUGAUGUUGCUUAGUUAUUAGUGUUUAUUUUUACGCAGGUAGGUCGCACUAUAUAUA [JR_ExcArginiB_Sub017] | 115 nM
CGCCAGUGAUGUUGGUGCAGCUACCGGGAAGGAGCGCCCAUAAGGGCAGGUAGGUCGCCCGGGCAGUGAUGUUGCCUCAUGCCGC [Exclusion Arginine A GF 22] | 243 nM
UUAGUCUAGAGAGGAUAUCAGUGAUGUUGAUAUCAAGAUCUGAGAUAGAAUUCUAUCUCAGAUCAAUGAGAAGGCUCUAGACAUU [AK1.2 Exc FMN B] | 778 nM
UGUAUGUGAUUUGAUACCAGACCAGCUGGUGGUACCUGAGUGAUGUUCGGGAUGGUCUGGGUCCCUUGGCAGCAAAUCGCAUACU [KL-SSTheoB21] | 295 nM
UUUCGGUUCUGAGGAUAUUCGGACAAAUAUAGUGAUGUUGUAUAAGGAGGAGGGUGUUGGCAGUGCGGAGAAGGCAGACCAGGAU [ExFMNB.W] | 853 nM
UACUAUAGUGAUGUUAUAGAUAAACCAGAUACCAGUGUAACAUAACACCCUUGGCAGCUGAUGAGGGAACUAUUGAAAACAAUAG [AstroSTH-A#7newdesignED4.86] | 248 nM

Sequence | apparent KD of K4 kissing-loop reporter
GUGCAAAGCACCGGCACGAGCAGCUUAAAGGAGGAUAUGACGAAAGUCAGAAGGUUUAGUGAUGUUAGGCCUUGCUUGAGUCGAA [#01 K4 FMN A Exclusion] | 326 nM
GCUAUGGUAGGAAGGAGCGCUUAUUUAUUUUUAAGAGUGAUGUUCGUUAGUAGAUAUUUAAAGCAGGUAGGUCGCCUACUAUAGC [Arginine B K4 14] | 85.8 nM
UGUCAUUGGUCUGAUACCAGUUAGACCGAUAGGUCAAAACUGGAGUGAUGUUCCUAAAAUAACCCUUGGCAGCAGACCGAUGACU [TheoBS 2 #SwitchBubble #StaticStem] | 1380 nM
AAGUCAUAUAGAAGGAGCGUGUUUUUUAAUUUGUUUUCAUGAUCGAGUGAUGUUCGAUAUACACAGGUAGGUCGCUGUAUAAUAA [hbob_SS_Arginine_B_2t142] | 119 nM
ACGGGUCGACGAAGGAGCGCCGUGCAGUGAUGUUGCAGUUAGAUCCAGUGAUGUUUGGGCCGGCAGGUAGGUCGCGUCGACUCAU [Exclusion Arginine B GF 21] | 344 nM
UUUGGAGUGGGAGGAUAUCCUAAUAUGGGUGAUGUUAGCGAUGUUGAAAGUGUAGUGAUGUUGUGCGGAGAAGGUCCAGUGUAGA [BDazzled - #14 - Exc. FMN B] | 242 nM
GGUAGCAUGGCGGCCGCCACUCUAUGCGAGUGAUGUUCGCAGCUCAAAGAGCACCCGGGAACAGAGAGGACCGGGCCAUGCUACC | 294 nM
UGACUGGACUGAAGGAGCGCGCGAGACAAAGUCUCGAACUGCUAGUGAUGUUAGCGAAUAACGCAGGUAGGUCGCAGUCUAGUCU [ArgBS 14 #SwitchBubble #StaticStem] | 177 nM
UGCAGUGAUGUUGCUAUUUUUCUUGAUUAACGAGGACCGGUACGGCCGCCACUCGAUUUCUCUCUAAUCCAGUAUGUUGUUUGAU [whbob_EX_Tryp_A_t4] | 97.9 nM
ACAUGACGUGCGCCCGUCAUGAAACGUGCAAAGGAUAUUCCGUUUUGAAGAAGGUUGCGGUAGUGUAGUGAUGUUGCUCCGCCGU [theeternabot_sameState_KL_FMN_A_11] | 512 nM
AAGCAGUCACUCGACGCCAUCGAAGAUGGGCGAGGACCGGUACGGCCGCCACUCGGAGUGAUGUUCCGAAGACUGCAAAAUAAAA [MatMod 6 - Jieux - Exclusion - Tryptophan A] | 356 nM
AAUGUACAGGGAAGGAGCGUAGUCCAGUGAUGUUGGAGUUAAAUACCAGUGAUGUUGGUUAUACAGGUAGGUCGCCCUAAAGUGC [Exclusion Arginine B Gf 4] | 87 nM
CUCGAGUGAUGUUCGAUUAUUUAUACAGAUACCAGUGAAUUUUAACACCCUUGGCAGCUGGUUGUAUCAUUUUUUUUUACUAAAG [JR_ExcTheophyA_Sub008] | 140 nM
UGUACCGAGUGAGGAUAUGUCGUCGAAAGACGAAAUGGAGUGAUGUUCCUUAAACUGCGAAAGCAGACAGAAGGCACUUGGUACU [FmnBS 29 G11+C75] | 129 nM
UGAUACCAGACUGAUACCAGCUAGUGAUGUUAGCUGAAAUCAGGGUCAAAGACCCUGUCUAGCCCUUGGCAGCAGUCUGGUAUCU [TheoBX 9 #SwitchBubble #StaticStem] | 107 nM
GAAAGAAAGAAUGAUACCAGACACCCGAGUGAUGUUCGGAGCAGAGUGAUGUUCUUUUAAGUCCCUUGGCAGCAUAAAAGAAAAG [whbob_SS_Theo_B_sa82] | 109 nM
UGACUACAAGGAAAAUAAUCCUAGUGAUGUUAGGAUAUGCUGAUAAGCAGAAGGAACUGAGAUCGAAAGAUCUCAAAUGUAGUCU [FmnAX 27 Mat Inspired #SwitchBubble #StaticStem #K4Early] | 121 nM
AACCUACGAUCACAAUAGUGAUUGUAGGACUAGGAUAUGCUGAAAAGCAGAAGGAGUGAUGUUCCGUCAUGAAUAACAUGACAAA [FmnAX 3 #OpenEnded #K4Late #CoaxialStacking] | 610 nM
GGUAGCAUGGCGGCCGCCACUUAGACUGGAUCGGAAACGAUCCAGUGAAAACGAGUGAUGUUCGUAAGGACCGGGCCAUGCUACC | 386 nM
AAAUUUAUAUUAGAUACCAGCAUUUUGAAUGUUUAUUAUGACAAGAGUGAUGUUCUUGUAUGCCCUUGGCAGCUGGUAUGGGUUU [KL-XTheo-B24] | 123 nM
GGUAGCAUGGCGGCCGCCACUACCUAGUGAUGUUAGGCUGUGGACAUAGGAGCAAAAUAAAUAUGUAGGACCGGGCCAUGCUACC | 127 nM

same assay, conditions: Eterna round: R107; input ligand: arginine 13.2 mM

Sequence | apparent KD of K4 kissing-loop reporter
UGUGUUUACCUGACUCAGUGAUGUUGAGAAGGAGCGUGCGAAAGCACAGGUAGGUCGCUCAACCUAAAAUUCAGGUGAGCACUAA [#SwitchBubble 11 #K4Early] | 202 nM
AGUACAAUGGCGGCCGCCACUCAAUGGCAGAUCAAAGAUCUGCAUCACUCAGUGAUGUUGAGUGAGAGGACCGGGCCUUUGUACA [Omei KL Tryp B SS B v7] | 517 nM
GGAUAGGACUGAGGAUAUGGGCUAGGCAAGAAUAACUUGUCUAGCAAAUCCAUGAGGAGUGAUGUUCCAGAAGGCAGUCCUAUCG [FmnBX 1 U10+A76] | 135 nM
UCUGAAUUAUCUGAUACCAGACUUUUUGUAUUUAUUAAAACUAGUGAUGUUAGUUUAUCUGUCCCUUGGCAGCAGUUUCUACAGA [JR_Nu_ExcTheophyB_Sub022] | 95.4 nM
AAGCAGUCACUCGAAAUCAUCGAAGAUGAACGAGGACCGGUACGGCCGCCACUCGGAGUGAUGUUCCGAAGACUGCAAAAUAAAA [MatMod 1 - Jieux - Exclusion - Tryptophan A] | 410 nM
UUCAGACUACUACUAUUUAGUAGUAUAUACUAGGAUAUCCAGAUAUGGAGAAGGAGUGAUGUUCCUUAGUAGUAGUGAAUUAAAU [KL-XFMN-A6] | 138 nM
AUCAGUGUCUCACGCUACGACAUAUACGAUACCAGUCACCCUGAUGACCCUUGGCAGCGUCAACGAGUGAUGUUCGGGUUCUAGA [theeternabot_sameState_KL_Theo_A_1] | 241 nM
AUUGCGGCCGUUCUAUCACCAGGCGGAGAUACCAGAUGCCAGCAGAUCCCUUGGCAGCUCUGCACGAGAUCCAGUGAUGUUGGGU [theeternabot_exclusion_KL_Theo_A_9] | 239 nM
UUUUUCGCGUUUGAUACCAGCAGAGUUGUUCUUGUCUGGAACAUGAGUGAUGUUCAUGUCUGCCCUUGGCAGCAAACGGGAGAAG [KL-XTheo-B12] | 111 nM
AGUAAUGAGUGAUGUUCAAGUAGUAAGGAUACCAGUAAUUCAAAAUGCCCUUGGCAGCUUAGCGCUACCAAUAGAUGGGUAGUGG [Theophilline A V3 (+6G)] | 250 nM
